From patent US20220348939

System: Type I-F Csy (Cascade) complex with Cas2-3 (cas1, cas3, csy1-csy4), endogenous (Zymomonas mobilis ZM4)
Assay: cell_activity

| Sequence | activity (PAM 5'-TCC-3', His-tag insertion efficiency) [%] | activity (PAM 5'-CCC-3', knockout efficiency) [%] |
| --- | --- | --- |
| AUCUUGACUCCCUCCAUGCACUUAAAAAAUCU / ATCTTGACTCCCTCCATGCACTTAAAAAATCT / AGATTTTTTAAGTGCATGGAGGGAGTCAAGAT [ZMO0038 His-tag crRNA spacer ; ZMO0038 start codon target] | 100 | – |
| AUGCCGCUUUCGAUCAGGCCGCCGCCAAGAUU / ATGCCGCTTTCGATCAGGCCGCCGCCAAGATT / AATCTTGGCGGCGGCCTGATCGAAAGCGGCAT [ZMO0038 knockout crRNA spacer ; ZMO0038 target] | – | 100 |
